According to the supplement of paper PMC9732359:
± gives the uncertainty stated by the source.

Test: protein stability index of a GFP-peptide fusion (yeast GPS) (PSI 1-4); higher = more stable; sorted into four equal gates, so the index is relative within each strain
Procedure, shortened: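 Sequencing reads from sorted gates were used to score each peptide. The library consisted of tiled 17-residue yeast protein peptides fused downstream of GFP on a Cherry-expressing plasmid, pooled and carried in yeast. Mid-log cultures in leucine-free medium were split into four equal gates by GFP/Cherry ratio, and each gate's plasmids were PCR-amplified and Illumina-sequenced. The protein stability index adds up, over all gates, the read frequency multiplied by the gate number.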

Sequence | protein stability index (doa10∆) | protein stability index (pdr5∆) | protein stability index (san1∆) | protein stability index (ubr1∆)
AQQDSTNVRLYSLLLAS [ECM29] | 2.27 ± 0.068 | 2.04 ± 0.052 | 2.39 ± 0.047 | 2.43 ± 0.04
DAGKIDKHLYHVLYKES [RPL19A] | 3.25 ± 0.24 | 3.12 ± 0.2 | 2.7 ± 0.091 | 2.89 ± 0.083
LVLYDAENDVIEATDLG [BRR2] | 3.29 ± 0.13 | 3.26 ± 0.12 | 3.45 ± 0.092 | 3.24 ± 0.066
YRFFKKISEDPVKALNE [SNF12] | 3.5 ± 0.19 | 3.68 ± 0.2 | 2.8 ± 0.23 | 3.52 ± 0.086
WNLNQFQIEADFIGHNS [ASC1] | 2.79 ± 0.079 | 2.7 ± 0.058 | 2.95 ± 0.076 | 2.52 ± 0.059
MADLQKQENSSRFTNVS [YMR153W/NUP53] | 3.23 ± 0.15 | 3.1 ± 0.14 | 2.36 ± 0.24 | 3.31 ± 0.12
APPQTRKFQPPPGFKRK [SMB1] | 3.18 ± 0.088 | 3.19 ± 0.1 | 3.17 ± 0.084 | 3.28 ± 0.063
NGLAIRRAAYGVVRYVM [RPS3] | 2.06 ± 0.057 | 1.91 ± 0.064 | 1.77 ± 0.074 | 1.61 ± 0.053
ELAGDEELEAEQIDVFS [PRP8] | 3.43 ± 0.079 | 3.27 ± 0.13 | 3.08 ± 0.12 | 2.82 ± 0.13
FTPQEIEYCSAQPSVQS [FAS2] | 2.88 ± 0.27 | – | – | –
SFNESQRGEDDLTFKLA [RPO21] | – | – | 3.54 ± 0.15 | 1.09 ± 0.14
LLFEDLFKKFNNDFKLS [RET1] | – | 1.39 ± 0.23 | – | 2.73 ± 0.13
REQSSNDSETHTEDEST [BRN1] | – | 3.43 ± 0.27 | – | –
TTTTTTTNNNNTNNNNT [SWI1] | 3.18 ± 0.034 | 3.18 ± 0.05 | 3.303 ± 0.021 | 3.465 ± 0.024
SQSKGTVWSANFEYDLS [YOR098C/NUP1] | – | 3.35 ± 0.15 | 2.69 ± 0.28 | 3.38 ± 0.12
LISSSLSNLSKDIKANL [YCS4] | 2.26 ± 0.057 | 1.72 ± 0.061 | 1.87 ± 0.1 | 2.35 ± 0.067
KELQQLQKQILTVENKL [SMC1] | 1.74 ± 0.081 | 1.99 ± 0.063 | 1.98 ± 0.091 | 2.18 ± 0.09
ISQLYSDAVMAEHSQNK [YJL041W/NSP1] | 2.99 ± 0.079 | 2.83 ± 0.081 | 2.75 ± 0.096 | 2.81 ± 0.088
VNSYRLNPNEYFSVTTA [SWI3] | – | 2.84 ± 0.2 | 2.3 ± 0.26 | 2.78 ± 0.22
YNSVRPFGVSTIFGGVD [PRE10] | 2.53 ± 0.083 | 2.71 ± 0.068 | 2.59 ± 0.14 | 2.57 ± 0.045
GKGNTFEKVGSHLYKAR [RPN14] | 2.93 ± 0.25 | 2.81 ± 0.14 | – | 3.27 ± 0.13

Sequence | protein stability index (doa10∆) | protein stability index (pdr5∆) | protein stability index (san1∆) | protein stability index (ubr1∆)
YPRLQDPSRELNVIIDQ [YCS4] | 3.2 ± 0.076 | 3.09 ± 0.08 | 3.34 ± 0.052 | 3.07 ± 0.082
LTCLPVPPPPVRPSISF [RPO21] | 2.28 ± 0.03 | 2.44 ± 0.031 | 2.36 ± 0.033 | 2.33 ± 0.026
RKAYFTAPSSERRVLLS [RPL26B] | 1.45 ± 0.041 | 1.7 ± 0.051 | 2.49 ± 0.066 | 1.66 ± 0.045
VARIPRVGGGGTGRSGQ [RPL4A] | 3.46 ± 0.15 | 3.39 ± 0.13 | 3.48 ± 0.072 | 2.57 ± 0.086
MKYLAAYLLLNAAGNTP [RPP2A] | 1.88 ± 0.031 | 2.05 ± 0.033 | 1.9 ± 0.05 | 2.32 ± 0.036
PKELGGLGMISASHILI [PRP8] | 2.36 ± 0.072 | 2.67 ± 0.053 | 2.14 ± 0.084 | 2.41 ± 0.047
LVDTPSNNTAATADTTH [NUT1] | – | – | 3.21 ± 0.059 | 3.17 ± 0.082
QAPFSTSTKDKNSSTSN [MED1] | 3.11 ± 0.062 | 3.24 ± 0.068 | 3.12 ± 0.054 | 3.09 ± 0.048
VTYALSGYVRSRGESDD [RPS21A] | 3.3 ± 0.22 | 3.07 ± 0.29 | 3.2 ± 0.16 | 3.3 ± 0.19
KTNEESAKMILLSDPTI [PRP8] | 2.77 ± 0.12 | 2.95 ± 0.16 | 2.94 ± 0.1 | 2.92 ± 0.042
ASKGRTKIDMPIKNRKN [BRN1] | 3.21 ± 0.11 | 3.13 ± 0.088 | 2.91 ± 0.12 | 3.17 ± 0.1
RLHYYPKDPSNVETYEQ [BRR2] | 3.02 ± 0.11 | 3.11 ± 0.23 | 3.01 ± 0.24 | –
NHSLQHQNESSAASIPP [RPN4] | 2.94 ± 0.057 | 3 ± 0.058 | 2.83 ± 0.062 | 3.12 ± 0.037
FKKDLVIVLSNISHLLE [SWI1] | 1.86 ± 0.048 | 1.63 ± 0.067 | 1.75 ± 0.078 | 1.93 ± 0.061
ATEVTPQEPKHIQEEEE [RPC19] | 3.24 ± 0.081 | 3.23 ± 0.09 | 3.14 ± 0.056 | 3.37 ± 0.079
NDVTRRTVKNILVSVLP [CSL4] | 2.89 ± 0.12 | 3.12 ± 0.1 | 3.11 ± 0.08 | 3.09 ± 0.11
CRNINRKHRNAQFAGRA [DIS3] | 2.54 ± 0.11 | 2.78 ± 0.071 | 2.18 ± 0.22 | 2.92 ± 0.086
YEMVIREKNALKRLAWQ [ISW2] | 2.08 ± 0.047 | 2.5 ± 0.062 | 2.32 ± 0.048 | 2.37 ± 0.055
DYTLQDIICEDSTLILE [RPB2] | 2.83 ± 0.082 | 2.64 ± 0.078 | 2.11 ± 0.11 | 2.15 ± 0.072
SSLNGTNAKIPQFDSTQ [SSN3] | 3.06 ± 0.08 | 3 ± 0.093 | 2.98 ± 0.067 | 2.97 ± 0.063
